Laboratory results reported in the supplement of paper PMC9112550, “Optimization of the antimicrobial peptide Bac7 by deep mutational scanning” (BMC Biology, 2022).

These sequences were tested on Escherichia coli TOP10 (assay: shrunken log2 fold change of peptide-encoding DNA abundance (4.5 h post-induction vs induction); higher = less antimicrobial activity (less host growth inhibition)). Conditions: time post-induction: 4.5 h; library: site-saturation at positions 5, 18, 19, 20.
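Further: peptides expressed intracellularly from a pBAD plasmid library in pooled LB shake-flask culture, induced with 0.3% L-arabinose, DNA abundance read by NGS, three biological replicates, DESeq2 with apeglm shrinkage.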

Sequence | shrunken log2 fold change
RRIRGRPPRLPRPRPRPDENPRP | 0.987
RRIRWRPPRLPRPRPRPWDKPRP | -0.0732
RRIRMRPPRLPRPRPRPMYLPRP | -0.0638
RRIRLRPPRLPRPRPRPVVNPRP | -0.0535
RRIRNRPPRLPRPRPRPCIAPRP | -0.878
RRIRFRPPRLPRPRPRPWGTPRP | -0.131
RRIRERPPRLPRPRPRPMKIPRP | 0.0286
RRIRLRPPRLPRPRPRPDEYPRP | -0.000921
RRIRPRPPRLPRPRPRPFIPPRP | -0.266
RRIRHRPPRLPRPRPRPVVFPRP | -0.147
RRIRARPPRLPRPRPRPWPRPRP | 0.992
RRIRMRPPRLPRPRPRPAPDPRP | 1.15
RRIRYRPPRLPRPRPRPLHYPRP | -1.53
RRIRRRPPRLPRPRPRPRPCPRP | 0.384
RRIRLRPPRLPRPRPRPVCQPRP | 0.155
RRIRMRPPRLPRPRPRPQRGPRP | 1.24
RRIRNRPPRLPRPRPRPEWFPRP | -0.00884
RRIRNRPPRLPRPRPRPIWMPRP | 0.178
RRIRGRPPRLPRPRPRPQWDPRP | 0.534
RRIRSRPPRLPRPRPRPKLMPRP | -0.125
RRIRFRPPRLPRPRPRPRDGPRP | 1.36
RRIRLRPPRLPRPRPRPQCFPRP | -0.0127
RRIRPRPPRLPRPRPRPTDHPRP | -0.114
RRIRIRPPRLPRPRPRPPFHPRP | -0.513
RRIRPRPPRLPRPRPRPNTEPRP | -0.124

Sequence | shrunken log2 fold change
RRIRSRPPRLPRPRPRPTKYPRP | -0.52
RRIRLRPPRLPRPRPRPPHCPRP | 0.177
RRIRARPPRLPRPRPRPCTQPRP | 0.148
RRIRPRPPRLPRPRPRPYASPRP | -0.0775
RRIRFRPPRLPRPRPRPYPSPRP | -0.018
RRIRFRPPRLPRPRPRPKWLPRP | 0.251
RRIRFRPPRLPRPRPRPCRQPRP | 0.229
RRIRHRPPRLPRPRPRPWIVPRP | -0.404
RRIRSRPPRLPRPRPRPHQVPRP | -0.0813
RRIRLRPPRLPRPRPRPVEHPRP | -0.174
RRIRWRPPRLPRPRPRPFREPRP | -0.105
RRIRCRPPRLPRPRPRPSWHPRP | -0.488
RRIRRRPPRLPRPRPRPVALPRP | 0.225
RRIRQRPPRLPRPRPRPRSGPRP | 0.162
RRIRMRPPRLPRPRPRPVYRPRP | -0.174
RRIRTRPPRLPRPRPRPSVGPRP | -0.055
RRIRERPPRLPRPRPRPHWTPRP | -0.0453
RRIRCRPPRLPRPRPRPYWRPRP | -0.0756
RRIRRRPPRLPRPRPRPWYGPRP | -0.263
RRIRDRPPRLPRPRPRPQLDPRP | 0.207
RRIRKRPPRLPRPRPRPVSYPRP | -0.227
RRIRARPPRLPRPRPRPYVNPRP | -0.235
RRIRYRPPRLPRPRPRPFSAPRP | -1.07
RRIRQRPPRLPRPRPRPVKSPRP | 0.169
RRIRYRPPRLPRPRPRPVNSPRP | -0.0185

Sequence | shrunken log2 fold change
RRIRTRPPRLPRPRPRPRVIPRP | -0.12
RRIRHRPPRLPRPRPRPFENPRP | -0.0293
RRIRNRPPRLPRPRPRPSDVPRP | -1.29
RRIRHRPPRLPRPRPRPAQAPRP | 0.183
RRIRIRPPRLPRPRPRPLAFPRP | -0.302
RRIRCRPPRLPRPRPRPEWEPRP | -0.00663
RRIRTRPPRLPRPRPRPHCPPRP | -0.605
RRIRIRPPRLPRPRPRPQSGPRP | 0.00632
RRIRARPPRLPRPRPRPAWTPRP | -0.0258
RRIRHRPPRLPRPRPRPLVFPRP | -0.29
RRIRQRPPRLPRPRPRPMDWPRP | 0.0912
RRIRMRPPRLPRPRPRPWKGPRP | -0.00192
RRIRWRPPRLPRPRPRPPWRPRP | 0.696
RRIRVRPPRLPRPRPRPFGVPRP | -0.179
RRIRLRPPRLPRPRPRPQCPPRP | -0.266
RRIRIRPPRLPRPRPRPSSQPRP | -0.674
RRIRCRPPRLPRPRPRPCAKPRP | -0.168
RRIRSRPPRLPRPRPRPCTWPRP | -0.125
RRIRFRPPRLPRPRPRPFMLPRP | -0.66
RRIRSRPPRLPRPRPRPTTIPRP | 0.127
RRIRQRPPRLPRPRPRPELHPRP | 0.0795
RRIRERPPRLPRPRPRPRAKPRP | 0.192
RRIRPRPPRLPRPRPRPSMSPRP | -0.409
RRIRGRPPRLPRPRPRPYWEPRP | -0.0842
RRIRRRPPRLPRPRPRPDALPRP | 0.23

Sequence | shrunken log2 fold change
RRIRWRPPRLPRPRPRPEPQPRP | 0.818
RRIRMRPPRLPRPRPRPQKRPRP | 0.489
RRIRIRPPRLPRPRPRPHNRPRP | -0.573
RRIRRRPPRLPRPRPRPHKAPRP | 0.434
RRIRNRPPRLPRPRPRPHMNPRP | -0.572
RRIRPRPPRLPRPRPRPHVGPRP | -0.0279
RRIRFRPPRLPRPRPRPVLGPRP | -0.127
RRIRYRPPRLPRPRPRPTKNPRP | -0.495
RRIRNRPPRLPRPRPRPDAPPRP | 0.185
RRIRFRPPRLPRPRPRPKKSPRP | 0.158
RRIRLRPPRLPRPRPRPFCFPRP | -0.213
RRIRCRPPRLPRPRPRPGWMPRP | 0.0485
RRIRVRPPRLPRPRPRPCKFPRP | 0.01
RRIRTRPPRLPRPRPRPMSGPRP | -0.137
RRIRCRPPRLPRPRPRPTAPPRP | 0.826
RRIRTRPPRLPRPRPRPMYYPRP | 0.0219
RRIRLRPPRLPRPRPRPEILPRP | 0.0325
RRIRERPPRLPRPRPRPGVVPRP | -0.0414
RRIRFRPPRLPRPRPRPVDYPRP | -0.031
RRIRIRPPRLPRPRPRPEHDPRP | -0.523
RRIRTRPPRLPRPRPRPCGRPRP | 0.155
RRIRYRPPRLPRPRPRPPRRPRP | 0.261
RRIRRRPPRLPRPRPRPLKMPRP | 0.156
RRIRSRPPRLPRPRPRPPTWPRP | 0.326
RRIRERPPRLPRPRPRPQKVPRP | -0.102

Sequence | shrunken log2 fold change
RRIRCRPPRLPRPRPRPMMEPRP | -0.105
RRIRTRPPRLPRPRPRPEFIPRP | 0.0102
RRIRGRPPRLPRPRPRPEMIPRP | 1.92
RRIRNRPPRLPRPRPRPIKSPRP | -0.245
RRIRRRPPRLPRPRPRPYPFPRP | -0.238
RRIRPRPPRLPRPRPRPSRWPRP | 0.611
RRIRHRPPRLPRPRPRPYTSPRP | -0.00159
RRIRIRPPRLPRPRPRPQQPPRP | 0.349
RRIRFRPPRLPRPRPRPVSHPRP | -0.266
RRIRDRPPRLPRPRPRPMSPPRP | 0.0807
RRIRMRPPRLPRPRPRPFQDPRP | -0.235
RRIRERPPRLPRPRPRPALDPRP | -0.0626
RRIRFRPPRLPRPRPRPQVPPRP | -0.144
RRIRSRPPRLPRPRPRPLPGPRP | 0.0761
RRIRLRPPRLPRPRPRPERHPRP | 0.27
RRIRDRPPRLPRPRPRPVKQPRP | -0.0215
RRIRFRPPRLPRPRPRPCPKPRP | 0.036
RRIRLRPPRLPRPRPRPCDDPRP | -0.189
RRIRGRPPRLPRPRPRPIDWPRP | 0.559
RRIRPRPPRLPRPRPRPDQAPRP | -0.0505
RRIRVRPPRLPRPRPRPANWPRP | 0.224
RRIRFRPPRLPRPRPRPNEKPRP | 0.0854
RRIRQRPPRLPRPRPRPFWDPRP | 0.213
RRIRPRPPRLPRPRPRPNEDPRP | -0.509
RRIRQRPPRLPRPRPRPCCDPRP | -0.0081
